Experimental data: patent US6046310, “FAS ligand fusion proteins and their uses” (Protein Design Labs., Inc., dated 2000)
Positions count from the first letter of the chain named. Names may count otherwise.

B1: HuABL364 Ig-FasL5 (other)
heavy (part 1 of 2): EVQLLESGGGLVQPGGSLRLSCAASGFTFSDYYMYWVRQAPEKRLEWVAYISNGGGSSHYVDSVKGRFTISRDNAKNTLYLQMNSLRAEDTALYHCARGMDYGAWFAYWGQGTLVTVSS
heavy (part 2 of 2): GTGHPSPPPEKKELRKVAHLTGKSNSRSMPLEWEDTYGIVLLSGVKYKKGGLVINETGLYFVYSKVYFRGQSCNNLPLSHKVYMRNSKYPQDLVMMEGKMMSYCTTGQMWARSSYLGAVFNLTSADHLYVNVSELSLVNFEESQTFFGLYKL
light: DIVMTQSPLSLPVTPGEPASISCRSSQSIVHSNGNTYLEWYLQKPGQSPQLLISKVSNRFSGVPDRFSGSGSGTDFTLKISRVEAEDVGVYYCFQGSHVPFTFGQGTKLEIK
B2: HuABL364 Ig-FasL5 L170A (other)
heavy (part 1 of 2): B1 heavy (part 1 of 2)
heavy (part 2 of 2): B1 heavy (part 2 of 2) with L41A
light: B1 light
B3: HuABL364 Ig-FasL5 M229A (other)
heavy (part 1 of 2): B1 heavy (part 1 of 2)
heavy (part 2 of 2): B1 heavy (part 2 of 2) with M100A
light: B1 light
B4: HuABL364 Ig-FasL5 H148S (other)
heavy (part 1 of 2): B1 heavy (part 1 of 2)
heavy (part 2 of 2): B1 heavy (part 2 of 2) with H19S
light: B1 light
B5: HuABL364 Ig-FasL5 Y232A (other)
heavy (part 1 of 2): B1 heavy (part 1 of 2)
heavy (part 2 of 2): B1 heavy (part 2 of 2) with Y103A
light: B1 light
B6: HuABL364 Ig-FasL5 Y192A (other)
heavy (part 1 of 2): B1 heavy (part 1 of 2)
heavy (part 2 of 2): B1 heavy (part 2 of 2) with Y63A
light: B1 light
B7: HuABL364 Ig-FasL5 V248A (other)
heavy (part 1 of 2): B1 heavy (part 1 of 2)
heavy (part 2 of 2): B1 heavy (part 2 of 2) with V119A
light: B1 light
B8: HuABL364 Ig-FasL5 Y189A (other)
heavy (part 1 of 2): B1 heavy (part 1 of 2)
heavy (part 2 of 2): B1 heavy (part 2 of 2) with Y60A
light: B1 light
B9: HuABL364 Ig-FasL5 Y244A (other)
heavy (part 1 of 2): B1 heavy (part 1 of 2)
heavy (part 2 of 2): B1 heavy (part 2 of 2) with Y115A
light: B1 light
B10: HuABL364 Ig-FasL5 I168A (other)
heavy (part 1 of 2): B1 heavy (part 1 of 2)
heavy (part 2 of 2): B1 heavy (part 2 of 2) with I39A
light: B1 light
B11: HuABL364 antibody (antibody, V domains shown)
VH: B1 heavy (part 1 of 2)
VL: B1 light

biological target: T1, Fas on the cell surface of human cell lines (MOLT-4, CESS, T47D) (human, UniProt P25445); test: cell-based or functional assay

Row | % apoptotic cells, CESS | % apoptotic cells, T47D | Binder
1 | 88 % apoptotic cells | 91 % apoptotic cells | B1
2 | 87 % apoptotic cells | 98 % apoptotic cells | B2
3 | 90 % apoptotic cells | 95 % apoptotic cells | B3
4 | 26 % apoptotic cells | 15 % apoptotic cells | B4
5 | 32 % apoptotic cells | 88 % apoptotic cells | B5
6 | 25 % apoptotic cells | 10 % apoptotic cells | B6
7 | 87 % apoptotic cells | 95 % apoptotic cells | B7
8 | 24 % apoptotic cells | 11 % apoptotic cells | B8
9 | 24 % apoptotic cells | 16 % apoptotic cells | B9
10 | 81 % apoptotic cells | 91 % apoptotic cells | B10

biological target: T1, Fas on the cell surface of human cell …; test: flow cytometry on MOLT-4 cells (express Fas but not the antigen for HuABL364), anti-human IgG FITC
Procedure: MOLT-4, a human T lymphocyte line that expresses Fas on the cell surface (B. Trauth et al., *Science*, 245:301, 1989, incorporated herein by reference) but not the antigen for HuABL364, was stained by incubation with protein G-purified HuABL364 lg-FasL followed by incubation with an anti-human IgG FITC reagent (Jackson Immunoresearch, #715-096-151). Positive staining by HuABL364 Ig-FasL was detected by flow cytometry, compared to negative staining with the HuABL364 antibody.

Row | binding result | Binder
11 | no binding | B11
